T1: ACC-3D10.5 acetylcholine-gated chloride channel subunit (C. elegans, UniProt G5EDN0 20-517)
T1 sequence: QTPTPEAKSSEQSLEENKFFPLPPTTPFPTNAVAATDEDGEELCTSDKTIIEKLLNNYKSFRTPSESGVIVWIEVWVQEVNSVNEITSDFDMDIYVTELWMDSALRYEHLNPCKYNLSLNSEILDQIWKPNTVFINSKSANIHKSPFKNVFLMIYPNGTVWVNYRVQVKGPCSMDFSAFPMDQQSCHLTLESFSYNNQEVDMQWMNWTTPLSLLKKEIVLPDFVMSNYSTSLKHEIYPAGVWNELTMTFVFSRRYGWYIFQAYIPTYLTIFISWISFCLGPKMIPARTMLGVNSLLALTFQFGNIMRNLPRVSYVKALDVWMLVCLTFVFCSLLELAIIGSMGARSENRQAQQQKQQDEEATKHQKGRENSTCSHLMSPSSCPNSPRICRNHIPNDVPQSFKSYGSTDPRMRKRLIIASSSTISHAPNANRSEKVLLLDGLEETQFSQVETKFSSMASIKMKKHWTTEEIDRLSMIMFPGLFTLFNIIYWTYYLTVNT

B1: ACC-2D6.3 acetylcholine-gated chloride channel subunit (receptor)
chain: DYSELVHSAELVSSSSYIHHKTNKKPDNCTRDTDIIDRLLNGTGYNKFRIPQEEGMTVVVEIWIQAITSIDELTNDFDMDIYITETWLDPALNFQTMTPCKGNLSLNHQVLDRLWTPNSCFINSKVAQIHNSPFRSVFLMLFPNGTVMVNYRVRVKGPCSLDLSNFPLDLQKCSLIYESFNYNRQEVEMRWSDAEHPVFNLSKIMLPDFDLFEIQTERRQEPYPAGMWDELHVTIIFERRFIWYFMQAYLPTYLTIFISWISFSLGSRAIPARTMLGVNSLLAIVFSFGNIMRNLPRVSYIKGIDVWMLVSMTFIFCSLLELAIVGFMVRDETVAKKKQQKKISGNISREESPHGIISERRFMFPPGCSESSKSLSSCTSGWTPERIDSISSVMFPFSFFVFNIIYWFYYIHRKEIIKQNLINRVDG
notes: Expressed from cRNA in Xenopus oocytes; also called ACC-2D6.3 receptor; ACC-2D6.3 channel
B2: ACC-1G6.4 acetylcholine-gated chloride channel subunit (receptor)
chain: QSLDNCANDTEIINALLKDSYNKHYIPSHPTHVRVDMWVQEVTSVSELTQDFEIDLYINEFWEDPALVYEDMNPCKRNISFDDKVLQRLWLPNTCFINSKSAAIHESPFKNVFLMVFSNGTLWTNYRMKLTGPCDMKLKRFPFDKQKCYLTFESFNYNTGEVRMQWNQPYPVILLKRIELPDFKLVNFSVIAVEQMYPAGWWDELTVAFVFERRYGWYVLQGYIPTMVTIVISWISFYLGPRAIPARTMLGVNSLLAMTFQFGNIIRNLPRVSYVKAIDVWMLSGMLFIFLSLLELAVVGFMSRNEGLPPKVKKRKRQEDDDEGFSWKSMQTSPHLELRQFWVDKRVNSLRNDSAVPPVEDYAPMELEQPYQNITKRREKRKWMSGLRKKWRAMRELRPETVDFYSAIFFPTAYMLFNISYWSFYLTSLSEYFDEDVNIDQP
notes: Expressed from cRNA in Xenopus oocytes; also called ACC-1G6.4 receptor; ACC-1G6.4 channel
B3: ACC-4E9.9 acetylcholine-gated chloride channel subunit (receptor)
chain: LLRSLEDDSNECMFNCPKRARNVSVPHTEKTCMGDDAIIAQILDGYNKLDLPGGGHVVVSIEIWVQEVSKIIEITSEFELDIYVTERWTDPSLAYSHLNPCKSNMSVDGATILNKIWNPHACFVNSKLANIHESPFKNIFLQIYSNGSIWHNYRIKLTGPCSSTLRTFPIDQQRCMLFYESFTHNTDQVKMEWITTVPPITILKGNITLPDYVLVDFSSSSELRLYPPGIFNELIATFTFQRLYGFYILQVYVPAYISVFISWVSFTLGAEQIPSRTTVGVNSLLALTFQFGAVVNNLPKTSDVKAIDVWILSSMAFIFASLIELAVVGYLSRDGQHGSIKCRCSWLCMNCKDWTALKIDQMSSIVFPVSFLAFNIWYWFIFLGKLLVRTI

Experiments:
[1] = target: T1, ACC-3D10.5 acetylcholine-gated chloride …; experiment: co-expression in Xenopus oocytes, two-electrode voltage clamp (inferred from loss of the ACh response)
Experimental: (§1) Oocytes were injected with 40 nl of cRNA using the Nanoject system (Drummond Scientific, Broomall, Pa., USA). Injected oocytes were incubated at 20° C. in ND96 supplemented with 100 mg/ml gentamycin and 550 mg/ml pyruvate. Oocytes were allowed to express cRNA for two days before measurements were taken.

[2] = target: T1, ACC-3D10.5 acetylcholine-gated chloride …; experiment: co-expression in Xenopus oocytes, two-electrode voltage clamp (inferred from changed desensitization, EC50 and Hill coefficient for ACh)
Experimental: as §1

[3] = target: B1; experiment: co-expression in Xenopus oocytes, two-electrode voltage clamp (inferred from loss of the ACh response)
Experimental: as §1

Binder: B1
binding result [1]: binds

Binder: B2
binding result [2]: binds

Binder: B3
binding result [3]: binds
